Values belong to the binder of their own block, whether it stands above or below them.
What was measured:
[1] = target: serum IgG of coeliac disease patient CD1; test: inhibition ELISA: serum preincubated with 50 µg/ml soluble TG2, then TG2-coated plate, IgG detection
[2] = target: serum IgA of the coeliac disease patients that displayed reactivity towards both TG2 and TG6 (Example 5); test: anti-TG2 IgA ELISA after preincubation of sera with 22.4 µg/ml soluble TG2
[3] = target: serum IgA of the gluten ataxia with enteropathy patients that displayed reactivity towards both TG2 and TG6 (Example 5); test: as above
[4] = target: serum IgA of the coeliac disease patients that displayed reactivity towards both TG2 and TG6 (Example 5); test: anti-TG6 IgA ELISA after preincubation of sera with 22.4 µg/ml soluble TG2
[5] = target: serum IgA of the gluten ataxia with enteropathy patients that displayed reactivity towards both TG2 and TG6 (Example 5); test: as above
[6] = target: serum IgA of gluten ataxia with enteropathy patient GAE 16; test: inhibition ELISA: serum preincubated with soluble TG2, then TG2-coated plate, IgA detection
[7] = target: serum IgA of coeliac disease patient CD1; test: inhibition ELISA: serum preincubated with 50 µg/ml soluble TG2, then TG2-coated plate, IgA detection
[8] = target: serum IgA of the coeliac disease patients that displayed reactivity towards both TG2 and TG6 (Example 5); test: anti-TG6 IgA ELISA after preincubation of sera with 22.4 µg/ml soluble TG6
[9] = target: serum IgA of the gluten ataxia with enteropathy patients that displayed reactivity towards both TG2 and TG6 (Example 5); test: as above
[10] = target: serum IgA of gluten ataxia with enteropathy patient GAE 16; test: inhibition ELISA: serum preincubated with soluble TG6, then TG2-coated plate, IgA detection
[11] = target: serum IgA of the coeliac disease patients that displayed reactivity towards both TG2 and TG6 (Example 5); test: anti-TG2 IgA ELISA after preincubation of sera with 22.4 µg/ml soluble TG6
[12] = target: serum IgA of the gluten ataxia with enteropathy patients that displayed reactivity towards both TG2 and TG6 (Example 5); test: as above

percent blocked [1]: 93%
mean inhibition (%) [2]: 37%
mean inhibition (%) [4]: 18%
percent blocked [7]: 52%
B1: recombinant human transglutaminase 2 with N-terminal hexahistidine-tag (enzyme)
chain: HHHHHHAEELVLERCDLELETNGRDHHTADLCREKLVVRRGQPFWLTLHFEGRNYEASVDSLTFSVVTGPAPSQEAGTKARFPLRDAVEEGDWTATVVDQQDCTLSLQLTTPANAPIGLYRLSLEASTGYQGSSFVLGHFILLFNAWCPADAVYLDSEEERQEYVLTQQGFIYQGSAKFIKNIPWNFGQFEDGILDICLILLDVNPKFLKNAGRDCSRRSSPVYVGRVVSGMVNCNDDQGVLLGRWDNNYGDGVSPMSWIGSVDILRRWKNHGCQRVKYGQCWVFAAVACTVLRCLGIPTRVVTNYNSAHDQNSNLLIEYFRNEFGEIQGDKSEMIWNFHCWVESWMTRPDLQPGYEGWQALDPTPQEKSEGTYCCGPVPVRAIKEGDLSTKYDAPFVFAEVNADVVDWIQQDDGSVHKSINRSLIVGLKISTKSVGRDEREDITHTYKYPEGSSEEREAFTRANHLNKLAEKEETGMAMRIRVGQSMNMGSDFDVFAHITNNTAEEYVCRLLLCARTVSYNGILGPECGTKYLLNLNLEPFSEKSVPLCILYEKYRDCLTESNLIKVRALLVEPVINSYLLAERDLYLENPEIKIRILGEPKQKRKLVAEVSLQNPLPVALEGCTFTVEGAGLTEEQKTVEIPDPVEAGEEVKVRMDLLPLHMGLHKLVVNFESDKLKAVKGFRNVIIGPA
mean inhibition (%) [3]: 55%
mean inhibition (%) [5]: 14%
percent blocked [6]: 6%

mean inhibition (%) [8]: 71%
mean inhibition (%) [11]: 1%
B2: recombinant human transglutaminase 6 with C-terminal hexahistidine-tag (enzyme, UniProt O95932 1-706, looked up, part only)
chain: MAGIRVTKVDWQRSRNGAAHHTQEYPCPELVVRRGQSFSLTLELSRALDCEEILIFTMETGPRASEALHTKAVFQTSELERGEGWTAAREAQMEKTLTVSLASPPSAVIGRYLLSIRLSSHRKHSNRRLGEFVLLFNPWCAEDDVFLASEEERQEYVLSDSGIIFRGVEKHIRAQGWNYGQFEEDILNICLSILDRSPGHQNNPATDVSCRHNPIYVTRVISAMVNSNNDRGVVQGQWQGKYGGGTSPLHWRGSVAILQKWLKGRYKPVKYGQCWVFAGVLCTVLRCLGIATRVVSNFNSAHDTDQNLSVDKYVDSFGRTLEDLTEDSMWNFHVWNESWFARQDLGPSYNGWQVLDATPQEESEGVFRCGPASVTAIREGDVHLAHDGPFVFAEVNADYITWLWHEDESRERVYSNTKKIGRCISTKAVGSDSRVDITDLYKYPEGSRKERQVYSKAVNRLFGVEASGRRIWIRRAGGRCLWRDDLLEPATKPSIAGKFKVLEPPMLGHDLRLALCLANLTSRAQRVRVNLSGATILYTRKPVAEILHESHAVRLGPQEEKRIPITISYSKYKEDLTEDKKILLAAMCLVTKGEKLLVEKDITLEDFITIKVLGPAMVGVAVTVEVTVVNPLIERVKDCALMVEGSGLLQEQLSIDVPTLEPQERASVQFDITPSKSGPRQLQVDLVSPHFPDIKGFVIVHVATAK
modifications: full-length C-terminal His6 tag
mean inhibition (%) [9]: 61%
percent blocked [10]: 37%
mean inhibition (%) [12]: 15%
